This is an account of results in the DeepSol protein solubility set.

The series is described as follows: soluble on expression in E. coli; label from the status in PepcDB or PDB records.
Consider “MTNPTKPIPLNFDKPRRFMPPKHFADLSADERIDALKELGLPKFRANQIARHYYGRLEADPSTMTDLPAAAREKVKDALFPQLMQPVRAVQADDGETQKTLWKLHDGTLLESVLMRYPNRATLCISSQAGCGMACPFCATGQGGLDRNLSTGEIVDQVRAASATMQAEGGRLSNIVFMGMGEPLANYKRVVSAVRQITAPVPEGFGISQRNVTVSTVGLAPAIRKLADEDLSVTLAVSLHTPDDELRNTLVPTNNRWEVAEVLDAARYYADRSGRRVSIEYALIRDVNDQGWRADMLGKKLHKALGPLVHVNLIPLNPTPGSKWDASPMDRQKEFVQRVIAQGVTCTVRDTRGQEIAAACGQLAAEER”, for which the “soluble on expression in E. coli” value is “not soluble”.
As to “MASYPCHQHASAFDQAARSRGHNNRRTALRPRRQQEATEVRPEQKMPTLLRVYIDGPHGMGKTTTTQLLVALGSRDDIVYVPEPMTYWRVLGASETIANIYTTQHRLDQGEISAGDAAVVMTSAQITMGMPYAVTDAVLAPHIGGEAGSSHAPPPALTLIFDRHPIAALLCYPAARYLMGSMTPQAVLAFVALIPPTLPGTNIVLGALPEDRHIDRLAKRQRPGERLDLAMLAAIRRVYGLLANTVRYLQCGGSWREDWGQLSGTAVPPQGAEPQSNAGPRPHIGDTLFTLFRAPELLAPNGDLYNVFAWALDVLAKRLRSMHVFILDYDQSPAGCRDALLQLTSGMVQTHVTTPGSIPTICDLARTFAREMGEAN”, the “soluble on expression in E. coli” value is recorded as “soluble”.
The entry for “MGSDKIHHHHHHMEPIVRLENVTKNYRGVPAVKNVSFDLRKGEIHALLGENGAGKSTLTKIIAGVVDATSGKMFHKGREIAYASPHAALEAGIAMVFQETSLVPSMTVAQNLYLGTEKFLNRLRGTYIAAQQFLQSLNFPVDPNAMVATLGAAKRQMVEIARAVHHNAEIIIFDEPTATLTPEEKRHFFALIRRLKASGVSIVFISHALEEALAIADRITILRDGELVITDDTSAFDRDKIVAAMVGRTLSGQIYRQRDEARLRKAGKKVLSVQDISMSNVVRNNSFSIFEGQITGVFGLIGSGRTETFKIVSGIYKRDFLRGGAIELDDRPVRYLVPSEAVADGIVYVTEDRKSEGIFETMGIAENLFGGLLAAGREKAWVINQQEMRQLSAQWTKTLNIKAINDNARVVELSGGNQQKVVIGKGLVQQPRIVIFDEPTRGVDVGAIAEIHQIINRLADEGLAVVVISSYLPEIMNLSDRILVCRQGRIVEEYSPAEATEEKIMYAAVH” is “not soluble”; for “MECYVFTPKGRIIKLPRGATIVDFAYAVHTDIGNSCVSARVNRILAPLHSVLENGQTIEIITAPWARPNPLEHHHHHH” it is “not soluble”; for “MRLYRDRAVVLRQHKLGEADRIVTLLTRDHGLVRAVAKGVRRTRSKFGARLEPFAHIEVQLHPGRNLDIVTQVVSVDAFATDIVADYGRYTCGCAILETAERLAGEERAPAPALHRLTVGALRAVADGQRPRDLLLDAYLLRAMGIAGWAPALTECARCATPGPHRAFHIATGGSVCAHCRPAGSTTPPLGVVDLMSALYDGDWEAAEAAPQSARSHVSGLVAAHLQWHLERQLKTLPLVERFYQADRSVAERRAALIGQDIAGG” it is “not soluble”.
The entry for “GPGSMKRFGIWTRPSLGRRSFYAGLDDSRVMRLRRSNTTLNKPRGRDAFSLAFEKRIHLLPLTQVGDLYGLPVPPSAPGESSGGAAEETIRVLVVDLLLLEDVESLISFPASNPLYYEDWPTVSDNSEGEVPSDRRSGISSSLALGESGFSLPSSNKRHLRQYGDTTLLRNSFVREAAHGVSAQFHTAICINPFIDVDRFRREEAQVEMISAYRNILYEAAEVPDGRADVIRIPALCCDTCGPRFYHEIGKLNQQSLIKGFHRIGSEAKETLMLNPKFIVEVYVPLPFLQQFQRAFLEDAWETPESTLNPGRTALYPGLAPPRSLLPLEGWIGKRPELVEAIETEGRSLMSGVKYSLDGKPIEEREVLAELRVFGREKEQEEMLKREEETATQQGLEVAPNGNTVAPLRAGIDQN” is “not soluble”; for “MGSDKIHHHHHHMAKRSIAYLDSVFDISYTFIDHHSPLNALFLHGWGSSKEIMQQAFQGCFLNYNHLYVDLPGFNQSPNDEKVLETKDYANIINLFLKSVGKKAHVVFGHSFGGKVAILCENERMVLLSSAGILEPKPLKVRCKILLAKIFKKLGLNLGFLRSKDAMGLNQAMYETFKKVISEDFSDHFKRCEKEVLLFWGKDDKATPLSSAQKMQTLLKRSVLFVLEGDHFFFLNQAKEIEKLVENYHHAKS” it is “not soluble”.
